Test results reported in publication PMC9870165, “Structure and neutralization mechanism of a human antibody targeting a complex Epitope on Zika virus” (PLOS Pathogens, 2023).

How the values were obtained:
[1] = target: T1, recombinant ZIKV E protein (ectodomain of Zika virus envelope glycoprotein E) (Zika virus; PDB 8DV6 source …); assay: crystal structure; recombinant ZIKV E and G9E Fab mixed 1:1.2 at room temperature for 30 min, complex purified on Superdex 200-increase; crystals in 100 mM HEPES pH 7.5, 10% (w/v) PEG 8000; 3.4 Å; conditions: both partners purified
T1 construct: also called soluble E; E-dimer

[2] = target: T2, ZIKV E protein on wild-type Zika virus H/PF/2013 in culture supernatant (Zika virus strain H/PF/2013, UniProt A0A024B7W1); assay: ELISA; ZIKV capture ELISA: virus (WT or rZIKV-D67N) in culture supernatant captured by plate-bound mAb 4G2; mAbs added 1 h at 37°C; anti-human Fc alkaline phosphatase; signal normalized to ZKA-190; conditions: one partner purified
T2 construct: also called WT ZIKV; ZIKV H/PF/2013; source: ZIKV in culture supernatant

B1: G9E Fab (antigen binding fragment of human monoclonal antibody G9E, wild type) (Fab, V domains shown)
VH: RVHLVESGGGVVQPGRSLRLSCVASGFAFSNYHMHWVRQAPGKGLEWVAIIWDDGSDQYYADSVKGRFTISRDNSKNTLFLQMNRLRAEDTALYYCVGGSSAYNGDNGWREAASLDDWGQGTLVTVSS
VL: QSALTQPASVSGSPGQSITIFCSGSSNDVGGYNYVSWYQQYPGKVPKLLIYDVNSRPSGVSNRFSGSKSGNTASLTISGLQAEDEADYYCSSYTSRRTWVFGGGTIVTVL
notes: also called Fab G9E; G9E WT
Q: Does B1 bind [1]?
A: Result: binds

B2: HuZV-67, humanized version of the ZIKV specific mouse EDIII mAb ZV-67, IgG1 format (antibody, V domains shown)
VH: QAQLQQSGTGLARPGASVKLSCKASGYTFTSYGISWVTQRAGQGLEWIGVIYPRSGNTYYNEKFRGKATLTADKSSSSAYMELRGLTAEDSAVYFCARENYGSVYWGQGTTLTVSS
VL: DIVMTQSQKFMSTSVGDRVSITCKASQNVGTAVAWYQQKPGQSPKLLIYSASNRYTGVPDRFTGSGSGTDFTLTISNMQSEDLADYFCQQFSSYPYTFGGGTKLEIK
notes: IgG1; source: Expi293, purified (MabSelect resin)
Q: Does B2 bind [2]?
A: Result: binds
